Experimental data taken from publication PMC3621912 (Virology, 2012).

B1: recombinant VI114-G48C (protein VI residues 34-114 with G48C) (domain or fragment)
chain: AFSWGSLWSGIKNFCSTVKNYGSKAWNSSTGQMLRDKLKEQNFQQKVVDGLASGISGVVDLANQAVQNKINSKLDPRPPVE
modifications: intermolecular disulfide bond (in the dimer fraction)
B2: protein VI with the G48C mutation, in AdV VI-G48C particles (natural protein)
chain: AFSWGSLWSGIKNFCSTVKNYGSKAWNSSTGQMLRDKLKEQNFQQKVVDGLASGISGVVDLANQAVQNKINSKLDPRPPVEEPPPAVETVSPEGRGEKRPRPDREETLVTQIDEPPSYEEALKQGLPTTRPIAPMATGVLGQHTPVTLDLPPPADTQQKPVLPGPTAVVVTRPSRASLRRAASGPRSLRPVASGNWQSTLNSIVGL
modifications: intermolecular disulfide bond between protein VI molecules (in the dimer fraction)

Columns and labels:
[1] = molecular target: the molecule itself; test: non-reducing SDS-PAGE
[2] = molecular target: the molecule itself; test: non-reducing SDS-PAGE with immunoblot
[3] = molecular target: the molecule itself; test: non-reducing SDS-PAGE with gel densitometry

Row | Protein | stoichiometry N [1] | stoichiometry N [2] | ratio of monomer:dimer [3]
1 | B1 | 2 | – | –
2 | B2 | – | 2 | ~1.4 dimer per monomer
